The text below walks through data of US20250381223A1 (UTC THERAPEUTICS SHANGHAI, published 2025).

The target in experiment [1] is T1, CD123-Fc recombinant protein (human, UniProt P26951 19-305).
T1 construct: construct not described; not shown: Fc part
T1 sequence (looked up): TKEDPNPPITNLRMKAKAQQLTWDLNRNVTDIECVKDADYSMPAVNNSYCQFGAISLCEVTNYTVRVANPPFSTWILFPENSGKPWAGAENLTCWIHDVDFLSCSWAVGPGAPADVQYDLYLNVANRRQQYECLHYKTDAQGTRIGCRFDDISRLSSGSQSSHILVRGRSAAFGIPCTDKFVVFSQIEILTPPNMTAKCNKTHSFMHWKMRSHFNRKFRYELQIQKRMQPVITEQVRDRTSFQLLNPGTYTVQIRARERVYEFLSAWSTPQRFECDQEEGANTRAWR
Description: flow cytometry of T cells electroporated with CAR mRNA, stained with CD123-Fc + PE-anti-hIgG-Fc; Mock 1.68. How it is done: The CD123 CAR mRNAs obtained in Example 35 above were each introduced into T cells by electroporation according to the following procedures: T cells were collected, washed with the Opti-MEM medium, and resuspended at 1×10e⁷/mL with the Opti-MEM medium; 10 μg of RNA and 100 μL of T cells were aliquoted, mixed well, and electroporated under the following parameters (BTX machine): 500 V, 0.7 ms; the cells were then transferred to a pre-warmed medium and cultured at 37° C. The binding of CD123 CART cells to the CD123-Fc recombinant protein was detected by FACS staining. […] Empty vector (Mock) was a control T cell without CAR molecule. A549 tumor cells were electroporated with different amounts of CD123 mRNA. The electroporation procedure was the same as described above, and only the parameters were changed, with the parameters 300 V, 0.5 ms used. CD123 expression in A549 tumor cells was detected by FACS staining of isotype or anti-CD123 antibodies and A549 cells electroporated with different amounts of CD123 mRNA. […] The cytotoxicity of CD123 CART cells against tumor cells was detected in an in vitro cytotoxicity assay. Tumor cells expressing EGFP or EGFP-A549 cells electroporated with different amounts of tumor antigen were seeded at 3000 cells/100 μL/well into a flat-bottom 96-well plate; CART cells were diluted to a proper concentration and seeded to the 100 μL/well tumor cells according to different E/T ratios (e.g., 10:1, 3:1, or 1:1), and the co-culture plate was placed into the IncuCyte S3 machine and scanning parameters were set. After scanning for 3 days, the total green object integrated intensity (GCU×μm²/well) was analyzed to calculate the killing efficiency.
In general terms: Flow cytometry measures light scatter and fluorescence of single cells or particles in a stream.

Experiment [2] addresses T2, CD28 (detection antigen of the BLI assay) (human, UniProt P10747 19-152, limits assumed).
T2 construct: also called the antigen
Description: BLI (GATOR); antibody loaded at 30 nM, antigen 300-37.5 nM. From the text: The affinity kinetics of the humanized antibodies were detected using biolayer interferometry (BLI). The experimental procedures were as follows: [0533] 1. GATOR instrument was run, and the Kinetics experimental mode was selected. [0534] 2. The analysis program was run according to Table 5

B1: anti-CD123 scFv-C4 (scFv)
scFv: QSALTQPPSASGTPGQRVTISCSGSSSNIGSNYVNWYQQLPGTAPKLLIYRNNQRPSGVPDRFSGSKSGTSASLAISGLRSEDEADYYCAAWDDSLSGHGVFGTGTELTVLGGGGSGGGGSGGGGSQVQLVQSGPEVKKPGASVKVSCKASGYDFIRYYMNWVRQAPGQGPEWMGAIDPSDGDTTYGQKFQGRVTLTRDTFTSTVYMELSSLRSEDTAVYYCARDWELTNSYGLDVWGQGTTVTVSS
notes: On mRNA-electroporated T cells as CAR
As for B1, the “percent of cells in the CD123-Fc positive gate” value (from here on “percent of cells”) in experiment [1] turned out to be 93.8%.

B2: anti-CD123 scFv-C16 (scFv)
scFv: QSVVTQPPSASGTPGQRVTISCSGSSSNIEGNTVSWYQQFPGAAPKLLIYSNSYRASGVPDRFSGSKSGTSASLAISELQSEDEADYYCSAWDDSLNGPVFGGGTELTVLGGGGSGGGGSGGGGSQVQLQESGGGLVQPGGSLRLSCAASGFTFSSYSMNWVRQAPGKGLEWVSYISSSSSTIYYADSVKGRFTISRDNAKNSLYLQMNSLRAEDTAVYYCARDIYGDWDYYYYGMDVWGQGTTVTVSS
notes: as for B1
B2: in experiment [1], the “percent of cells” value came to 94.2%.

B3: anti-CD123 scFv-C10 (scFv)
scFv: SYELTQPPSVSVAPGKTARITCGGNNIGSKSVHWYQQKPGQAPVLVVYDDSDRPSGIPERFSGSNSGNTATLTISRVEAGDEADYYCQVWDSSSDHWVFGGGTKLTVLGGGGSGGGGSGGGGSQVQLVQSGAEVKKPGSSVKVSCKASGGTFSSYAISWVRQAPGQGLEWMGGIIPIFGTANYAQKFQGRVTITADESTSTAYMELSSLRSEDTAVYYCAREKWGYYGDYYYGMDVWGQGTTVTVSS
notes: as for B1
As for B3, in experiment [1], the “percent of cells” value came to 32.3%.

B4: anti-CD123 scFv-C11 (scFv)
scFv: QSVVTQPPSASGTPGQRVTISCSGSSSNIGSNYVYWYQQLPGTAPKLLIYRNNQRPSGVPDRFSGSKSGTSASLAISGLRSEDEADYYCAAWDDSLSGYVFGTGTKLTVLGGGGSGGGGSGGGGSEVQLVESGGGLVQPGRSLRLSCTASGFTFGDYAMSWVRQAPGKGLEWVGFIRSKAYGGTTEYAASVKGRFTISRDDSKSIAYLQMNSLKTEDTAVYYCTRDIGYYGSGSYSPFDYWGQGTLVTVSS
notes: On mRNA-electroporated T cells as CAR; also called anti-CD123-C11
Consider B4, for which, in experiment [1], the “percent of cells” value worked out at 38%.

B5: anti-CD123 scFv-C3 (scFv)
scFv: AIQMTQSPSSLSASVGDRVTITCRASQGIGTYLAWFQQKPGKAPKSLIYAASNLQSGVPSKFSGSGSGTDFTLTISNLQPEDFATYYCQQYKGYPLTFGGGTKLEIKGGGGSGGGGSGGGGSQVQLVQSGAEVKKPGSSVKVSCKASGGTFSSYAISWVRQAPGQGLEWMGGIIPIFGTANYAQKFQGRVTITADESTSTAYMELSSLRSEDTAVYYCARDSGWFGPRYYFDYWGQGTLVTVSS
notes: as for B1
As for B5, the “percent of cells” value in experiment [1] was determined as 84.7%.

B6: huVH5huVL3 (antibody, human IgG1, kappa, V domains shown)
VH: QVQLQESGPGLVKPSETLSLTCTVSGFSISDYGVHWIRQPPGKGLEWIGVIWAGGGTNYNPSLKSRVTISVDTSKNQVSLKLSSVTAADTAVYYCARDKGYSYYYSMDYWGQGTTVTVSS
VL: DIQLTQSPSSLSASVGDRVTITCRASESVEYYVTSLMQWYQQKPGKAPKLLIFAASNVESGVPSRFSGSGSGTDFTLTISSLQPEDFATYYCQQSRKVPYTFGGGTKLEIKR
By Kd is commonly meant the concentration at which binding is half-saturated. For orientation: koff means the first-order rate constant of dissociation. Low readings indicate slow dissociation, high ones fast dissociation. A word on the kon: it is the second-order rate constant of association. Low values mean slow association, high ones fast association. On to B6, for which, in experiment [2], binding was characterised by a dissociation constant (Kd) of 11.5 nM, the off-rate constant (koff) came out at 0.00101 s⁻¹ and the kon is 87800 M⁻¹ s⁻¹.

B7: anti-CD123 scFv-C14 (scFv)
scFv: DIRMTQSPSSLSASVGDRVTITCQASQDITNYLNWYHQKPGKAPKLLIYDASNLETGVPSRFSGGGSGTDFTFTISSLQSEDIGTYYCQQYDDLPLTFGGGTKVEIKGGGGSGGGGSGGGGSQVQLQESGPGLVKPSETLSLTCTVSGGSISSSSHYWGWIRQPPGKGLEWIGSIYYSGSTYYNPSLKSRVTISVDTSKNQFSLKLSSVTAADTAVYYCARRVWVWPTYGMDVWGQGTTVTVSS
notes: as for B1
For the molecule B7, the “percent of cells” value in experiment [1] came out at 85.4%.

B8: anti-CD123 scFv-C17 (scFv)
scFv: QSALTQPASVSGSLGQSITISCTGTSSDVGTYDYVSWYQQHPGKAPKLMIYDVTYRPSGVSHRFSGSKSGNTASLTISGLQADDEADYYCQQYNNWPPRYTFGQGTKVEIKGGGGSGGGGSGGGGSQVQLVQSGAEVEKPGASVKLSCTASGYNFNSYYMHWVRLTPGQGLEWMGLINPTNGRTTYAQKFQGRVTMTGDTSTRTVYLALSSLRSEDSALYYCARGSPPHIFDPDFDYWGQGTLVTVSS
notes: as for B1
Consider B8, for which, in experiment [1], the “percent of cells” value was 97.5%.

B9: anti-CD123 scFv-C15 (scFv)
scFv: DIQLTQSPSTLSASVGDRVTISCRASQSISSWLAWYQHKPGKAPKLLIYKTSALEDGVPSRFSGSGSGTEFTLTISSLQPDDFATYFCLHYGSYTFGQGTKVDIKGGGGSGGGGSGGGGSEVQLVESGGGLVNPGGSLRLSCEASGFTFSDYYISWIRQAPGKGLEWISYISGSSTYTDFADSVKGRFTISRDNAKNTVFLQMNSLRAEDTAVYYCARDRRGRFDPWGQGTLVTVSS
notes: as for B1
For B9, the “percent of cells” value in experiment [1] was found to be 97.3%.

B10: anti-CD123 scFv-C2 (scFv)
scFv: QSVVTQPPSVSAAPGQKVTISCSGSSSNIGNNYVSWYQQFPGTAPKLLIYDNNKRPSGIPDRFSGSKSGTSGTLGITGLQTGDEADYYCVTWDTSLSAGVFGGGTKLTVLGGGGSGGGGSGGGGSQITLKESGGGLVKPGGSLRLSCAASGFTFSNAWMSWVRQAPGKGLEWVGRIKSKTDGGTTDYAAPVKGRFTISRDDSKNTLYLQMNSLKTEDTAVYYCTTDPHGYYYGMDVWGQGTTVTVSS
notes: as for B1
Turning to B10, the “percent of cells” value in experiment [1] was found to be 81.7%.

B11: anti-CD123 scFv-C5 (scFv)
scFv: NFMLTQPHSVSESPGKTVTLSCTRSSGSIAGSYVQWYQQRPGSSPTTVIFQDNQRPSGVPDRFSGSIDKSSNSASLTISGLKTEDEADYYCQSYDSNNQVFGGGTKLTVLGGGGSGGGGSGGGGSEVHLVESGGGVVRPGGSLRLSCAASGFTFGDYGMSWVRQAPGKGLEWVSGINWNGGRTGYADSVKGRFTISRDNAKNSLYLQMNSLRAEDTALYYCARARGSGSYFGYMDVWGKGTTVTVSS
notes: On mRNA-electroporated T cells as CAR; also called anti-CD123-C5
In the case of B11, the “percent of cells” value in experiment [1] was found to be 79.3%.

B12: anti-CD123 scFv-C6 (scFv)
scFv: SYELTQPPSVSVSPGQTARIPCSGADLGDQYVSWYQHQPGQSPLLVIYEDDKRPSGIPERFSGSNSGNTATLTISGTQAMDEADYYCQAWDGNAAIFGGGTKLTVLGGGGSGGGGSGGGGSQVQLVQSGGGSVQPGGSLRLSCAASGFTFTRYSMNWVRQAPGKGLEWVSYISSSSSTIYYADSVKGRFTISRDNAKNSLYLQMNSLRDEDTAVYYCARDGYGGNSDYYGMDVWGQGTTVTVSS
notes: as for B1
For the molecule B12, in experiment [1], the “percent of cells” value stood at 93.3%.

B13: anti-CD123 scFv-C13 (scFv)
scFv: DVVMTQTPLSLPVTLGQPASISCRSSQGLVFSDGVTYLNWFQQRPGQSPRRLIYKVSNRDSGVPDRFSGSGSGTDFTLKISRVEAEDVGIYYCMQGTHWPHTFGQGTKLEIKGGGGSGGGGSGGGGSEVQLVESGGGLVKPGGSLRLSCAASGFTFSSYSMNWVRQAPGKGLEWVAFISHDASKKFYADSVKGRFTLSRDNSKNTLYLEMNSLGAEDTALYYCGRDRNWGFSDFWGQGTLVTVSS
notes: as for B1
Take B13: the “percent of cells” value in experiment [1] worked out at 85.7%.

B14: anti-CD123 scFv-C9 (scFv)
scFv: QSVLTQPPSASGTPGQRVTISCSGSNSNIENNYVYWYQHLPGTAPKRLIYQNNQRPSGVPDRFSGSKSGTSASLAISGLRSEDEADYYCSAWDDSLSAWVFGGGTELTVLGGGGSGGGGSGGGGSEVHLVESGGGLVQPGRSLRLSCTASGFTFGDYAMNWVRQAPGKGLEWVGFIRSKASGGTTDYAASVKGRFTISRDDSKSIAYLQMNSLKTEDTAVYYCTRALRGYSYGLFDYWGQGTLVTVSS
notes: as for B1
For the molecule B14, the “percent of cells” value in experiment [1] amounted to 94%.

B15: anti-CD123 scFv-C18 (scFv)
scFv: QSALTQPASVSGSPGQSITISCTGTSSDVGGYNYVSWYQQHPGKAPKLMIYDVSNRPSGVSNRFSGSKSGNTASLTISGLQAEDEADYYCSSYTSSSTLFVFGTGTELTVLGGGGSGGGGSGGGGSQVQLQESGPGLVKPSQTLSLTCTVSGGSISSGDYYWSWIRQSPGKGLEWIGYIHSTGTTYYNPSLKSRLTISLDTSKNQFSLKLNSVTAADTAVYYCARGGVGTIFNYWGQGTLVTVSS
notes: as for B1
For B15, the “percent of cells” value in experiment [1] was determined as 87.8%.

B16: anti-CD123 scFv-C1 (scFv)
scFv: QSALTQPASVSGSPGQSITISCTGTSSDIGAYNYVSWYQQHPGKAPKLIIYDVSHRPSGVSNRFSGSKSGNTASLTISGLQSEDEADYYCSSDTNNNTLVFGVGTKLTVLGGGGSGGGGSGGGGSEVHLVESGGGVVQPGRSLRLSCAASGFTFSSYGMHWVRQAPGKGLEWVAVIWYDGSNKYYADSVKGRFTISRDNSKNTLYLQMNSLRAEDTAVYYCARDRDGFFLPMYYFDYWGQGTLVTVSS
notes: On mRNA-electroporated T cells as CAR (hinge to CD3-zeta)
Consider B16, for which the “percent of cells” value in experiment [1] amounted to 53.6%.
